Assay results taken from patent publication US20240400654A1.
Positions count from the first letter of the chain named. In names and notes the source's numbering stands. Several values for one entry are separate records, joined by “and”; a condition that tells them apart may be missing. Identical values can stand only once.

B1: KB001 mouse Fab VH S28R (Fab, V domains shown)
VH: EVQLKQSGPGLVAPSQSLSITCTVSGFRLSIYSVHWVRQPPGKGLEWLGMIWGGGSSDYNSALKSRLSISKDNSKSQVFLKMNSLQTDDTAMYYCARNGNFYAMDYWGQGTSVTVSS
VL: QIVLTQSPAIMSASLGERVTMTCTASSSVSSSFLHWYQQKPGSSPQLWIYSTSNLASGVPARFSGSGSGTSYSLTISSMEAEDAATYYCHQYHHSPYIYTFGGGTKLEIK
B2: KB001 mouse Fab VH S28N (Fab, V domains shown)
VH: B1 VH with R28N
VL: B1 VL
B3: KB001 mouse Fab VH S28Y (Fab, V domains shown)
VH: B1 VH with R28Y
VL: B1 VL
B4: KB001 mouse Fab VH L29P (Fab, V domains shown)
VH: B1 VH with R28S, L29P
VL: B1 VL
B5: KB001 mouse Fab VH L29T (Fab, V domains shown)
VH: B1 VH with R28S, L29T
VL: B1 VL
B6: KB001 mouse Fab VH L29V (Fab, V domains shown)
VH: B1 VH with R28S, L29V
VL: B1 VL
B7: KB001 mouse Fab VH S30Q (Fab, V domains shown)
VH: B1 VH with R28S, S30Q
VL: B1 VL
B8: KB001 mouse Fab VH S30R (Fab, V domains shown)
VH: B1 VH with R28S, S30R
VL: B1 VL
B9: KB001 mouse Fab VH S30T (Fab, V domains shown)
VH: B1 VH with R28S, S30T
VL: B1 VL
B10: KB001 mouse Fab VH S30K (Fab, V domains shown)
VH: B1 VH with R28S, S30K
VL: B1 VL
B11: KB001 mouse Fab VH S30L (Fab, V domains shown)
VH: B1 VH with R28S, S30L
VL: B1 VL
B12: KB001 mouse Fab VH S30F (Fab, V domains shown)
VH: B1 VH with R28S, S30F
VL: B1 VL
B13: KB001 mouse Fab VH S30M (Fab, V domains shown)
VH: B1 VH with R28S, S30M
VL: B1 VL
B14: KB001 mouse Fab VH S30W (Fab, V domains shown)
VH: B1 VH with R28S, S30W
VL: B1 VL
B15: KB001 mouse Fab VH S30H (Fab, V domains shown)
VH: B1 VH with R28S, S30H
VL: B1 VL
B16: KB001 mouse Fab VH I31E (Fab, V domains shown)
VH: B1 VH with R28S, I31E
VL: B1 VL
B17: KB001 mouse Fab VH I31F (Fab, V domains shown)
VH: B1 VH with R28S, I31F
VL: B1 VL
B18: KB001 mouse Fab VH I31Q (Fab, V domains shown)
VH: B1 VH with R28S, I31Q
VL: B1 VL
B19: KB001 mouse Fab VH I31P (Fab, V domains shown)
VH: B1 VH with R28S, I31P
VL: B1 VL
B20: KB001 mouse Fab VH I31L (Fab, V domains shown)
VH: B1 VH with R28S, I31L
VL: B1 VL
B21: KB001 mouse Fab VH I31N (Fab, V domains shown)
VH: B1 VH with R28S, I31N
VL: B1 VL
B22: KB001 mouse Fab VH I31W (Fab, V domains shown)
VH: B1 VH with R28S, I31W
VL: B1 VL
B23: KB001 mouse Fab VH Y32S (Fab, V domains shown)
VH: B1 VH with R28S, Y32S
VL: B1 VL
B24: KB001 mouse Fab VH Y32W (Fab, V domains shown)
VH: B1 VH with R28S, Y32W
VL: B1 VL
B25: KB001 mouse Fab VH Y32N (Fab, V domains shown)
VH: B1 VH with R28S, Y32N
VL: B1 VL
B26: KB001 mouse Fab VH Y32F (Fab, V domains shown)
VH: B1 VH with R28S, Y32F
VL: B1 VL
B27: KB001 mouse Fab VH V34M (Fab, V domains shown)
VH: B1 VH with R28S, V34M
VL: B1 VL
B28: KB001 mouse Fab VH H35V (Fab, V domains shown)
VH: B1 VH with R28S, H35V
VL: B1 VL
B29: KB001 mouse Fab VH I51Q/M92I (Fab, V domains shown)
VH: B1 VH with R28S, I51Q, M92I
VL: B1 VL
B30: KB001 mouse Fab VH I51V (Fab, V domains shown)
VH: B1 VH with R28S, I51V
VL: B1 VL
B31: KB001 mouse Fab VH G53P (Fab, V domains shown)
VH: B1 VH with R28S, G53P
VL: B1 VL
B32: KB001 mouse Fab VH G53S (Fab, V domains shown)
VH: B1 VH with R28S, G53S
VL: B1 VL
B33: KB001 mouse Fab VH G55D (Fab, V domains shown)
VH: B1 VH with R28S, G55D
VL: B1 VL
B34: KB001 mouse Fab VH G55N (Fab, V domains shown)
VH: B1 VH with R28S, G55N
VL: B1 VL
B35: KB001 mouse Fab VH S56P (Fab, V domains shown)
VH: B1 VH with R28S, S56P
VL: B1 VL
B36: KB001 mouse Fab VH S56T (Fab, V domains shown)
VH: B1 VH with R28S, S56T
VL: B1 VL
B37: KB001 mouse Fab VH S56E (Fab, V domains shown)
VH: B1 VH with R28S, S56E
VL: B1 VL
B38: KB001 mouse Fab VH S56N (Fab, V domains shown)
VH: B1 VH with R28S, S56N
VL: B1 VL
B39: KB001 mouse Fab VH S56L (Fab, V domains shown)
VH: B1 VH with R28S, S56L
VL: B1 VL
B40: KB001 mouse Fab VH S56M (Fab, V domains shown)
VH: B1 VH with R28S, S56M
VL: B1 VL
B41: KB001 mouse Fab VH S57R (Fab, V domains shown)
VH: B1 VH with R28S, S57R
VL: B1 VL
B42: KB001 mouse Fab VH S57H (Fab, V domains shown)
VH: B1 VH with R28S, S57H
VL: B1 VL

What follows are binders tested against HRgpA-6H (Porphyromonas gingivalis) (UniProt P28784) (assay: ELISA, coated HRgpA-6H).
Chain of UniProt P28784 (P28784 228-860 limits assumed): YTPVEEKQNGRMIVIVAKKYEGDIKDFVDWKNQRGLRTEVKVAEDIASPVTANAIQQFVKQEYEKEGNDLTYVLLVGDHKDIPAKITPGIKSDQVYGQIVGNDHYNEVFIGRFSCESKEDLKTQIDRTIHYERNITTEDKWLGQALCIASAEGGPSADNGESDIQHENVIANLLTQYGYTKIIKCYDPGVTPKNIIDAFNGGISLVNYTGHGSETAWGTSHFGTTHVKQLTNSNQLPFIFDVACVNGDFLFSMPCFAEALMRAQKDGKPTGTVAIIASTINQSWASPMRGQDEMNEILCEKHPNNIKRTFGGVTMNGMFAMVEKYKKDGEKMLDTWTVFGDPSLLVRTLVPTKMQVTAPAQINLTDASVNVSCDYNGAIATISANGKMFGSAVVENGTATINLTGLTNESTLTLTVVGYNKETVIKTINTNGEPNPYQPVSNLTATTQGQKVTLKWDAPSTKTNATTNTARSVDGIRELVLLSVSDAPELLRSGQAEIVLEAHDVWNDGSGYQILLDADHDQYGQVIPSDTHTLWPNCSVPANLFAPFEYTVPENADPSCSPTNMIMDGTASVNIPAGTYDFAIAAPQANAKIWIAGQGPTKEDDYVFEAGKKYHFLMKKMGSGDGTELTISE

Binder | OD450 nm | Ratio OD(Variant)/OD(WT)
B1 | 0.458 | 0.848
B2 | 0.53 | 0.981
B3 | 0.437 | 0.809
B4 | 0.468 | 0.867
B5 | 0.502 and 0.512 and 0.501 | 0.93 and 0.948 and 0.928
B6 | 0.446 | 0.826
B7 | 0.47 and 0.483 | 0.932 and 0.957
B8 | 0.481 | 0.953
B9 | 0.457 | 0.906
B10 | 0.46 and 0.467 and 0.493 | 0.912 and 0.926 and 0.977
B11 | 0.468 | 0.928
B12 | 0.438 | 0.868
B13 | 0.437 | 0.866
B14 | 0.469 | 0.93
B15 | 0.482 | 0.955
B16 | 0.42 and 0.458 and 0.428 | 0.833 and 0.908 and 0.848
B17 | 0.45 | 0.892
B18 | 0.44 and 0.439 | 0.872 and 0.87
B19 | 0.471 and 0.428 | 0.934 and 0.848
B20 | 0.442 and 0.431 | 0.876 and 0.854
B21 | 0.429 | 0.85

Binder | OD450 nm | Ratio OD(Variant)/OD(WT)
B22 | 0.459 | 0.91
B23 | 0.717 and 0.783 and 0.718 | 0.847 and 0.925 and 0.848
B24 | 0.731 and 0.718 and 0.747 | 0.864 and 0.848 and 0.882
B25 | 0.826 and 0.775 | 0.976 and 0.916
B26 | 0.814 and 0.807 | 0.962 and 0.953
B27 | 0.793 and 0.791 | 0.962 and 0.959
B28 | 0.706 | 0.856
B29 | 0.722 | 0.817
B30 | 0.798 | 0.903
B31 | 0.754 and 0.716 | 0.947 and 0.899
B32 | 0.686 | 0.861
B33 | 0.697 | 0.866
B34 | 0.652 | 0.81
B35 | 0.855 and 0.788 and 0.824 | 0.972 and 0.896 and 0.937
B36 | 0.838 and 0.844 and 0.853 | 0.953 and 0.96 and 0.97
B37 | 0.772 and 0.713 | 0.878 and 0.811
B38 | 0.759 and 0.743 | 0.863 and 0.845
B39 | 0.71 | 0.807
B40 | 0.809 | 0.92
B41 | 0.796 | 0.905
B42 | 0.8 | 0.91
